Experimental data from paper doi:10.1101/2024.10.06.616851.

Molecular target: intracellular (IC) wildtype penton of ASFV, HA-tagged (African swine fever virus (ASFV) Georgia 2007/1) (UniProt Q65190)
Test: non-reducing SDS-PAGE with Western blot

For “intracellular (IC) wildtype penton of ASFV, HA-tagged (from UniProt Q65190 1-240) (natural protein)”, the percent pentamer was 30% and the stoichiometry N was 5.
